Results: PMC4613507

Biological target: GST-N–ezrin (GST-tagged N-terminal ezrin 1–309 aa) (UniProt P15311)
Test: pull-down

UniProt P15311, sequence (P15311 1-309): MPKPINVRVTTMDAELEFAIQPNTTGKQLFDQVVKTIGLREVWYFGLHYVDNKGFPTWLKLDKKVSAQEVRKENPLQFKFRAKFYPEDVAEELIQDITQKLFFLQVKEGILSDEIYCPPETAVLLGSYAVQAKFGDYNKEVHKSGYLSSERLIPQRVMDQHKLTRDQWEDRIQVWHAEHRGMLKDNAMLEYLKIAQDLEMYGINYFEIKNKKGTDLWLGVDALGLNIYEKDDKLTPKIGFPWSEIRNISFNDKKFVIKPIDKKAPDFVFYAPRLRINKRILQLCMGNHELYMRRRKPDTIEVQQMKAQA

- fold higher ezrin-binding affinity than NHERF1–C127: 4 to 8 fold
Substance: His6–thioredoxin fused NHERF2–C109 (domain or fragment)
